Test results taken from article PMC10692205, “Pyroptosis inhibiting nanobodies block Gasdermin D pore formation” (Nature Communications, 2023).

T1: chemically biotinylated full length human Gasdermin D (GSDMD) (human, UniProt P57764 1-484, chemically biotinylated (ChromaLink Biotin), approximately 2 biotins per molecule; sites not stated)
T1 chain: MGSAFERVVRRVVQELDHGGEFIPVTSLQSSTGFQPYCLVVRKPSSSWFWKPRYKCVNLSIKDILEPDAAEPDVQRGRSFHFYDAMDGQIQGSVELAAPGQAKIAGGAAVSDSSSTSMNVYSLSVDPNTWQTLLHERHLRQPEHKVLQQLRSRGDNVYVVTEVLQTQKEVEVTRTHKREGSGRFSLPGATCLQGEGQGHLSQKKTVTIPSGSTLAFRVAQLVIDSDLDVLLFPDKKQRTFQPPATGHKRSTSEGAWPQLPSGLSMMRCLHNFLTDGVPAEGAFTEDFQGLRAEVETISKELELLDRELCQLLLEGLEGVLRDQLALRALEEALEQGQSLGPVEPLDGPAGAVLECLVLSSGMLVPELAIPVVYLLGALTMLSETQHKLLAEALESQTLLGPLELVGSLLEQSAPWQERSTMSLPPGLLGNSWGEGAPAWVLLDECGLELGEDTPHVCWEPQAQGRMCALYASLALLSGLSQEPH


Tests used:
[1] = biological target: T2, human wild-type, full length Gasdermin D (GSDMD 1-484), chemically biotinylated (Homo sapiens (Human)., UniProt P57764, chemically biotinylated (ChromaLink Biotin), approximately 2 biotins per molecule); assay: SPR; Biacore 8K; chemically biotinylated full length GSDMD captured on Series S Sensor Chip CAP; nanobodies injected as analytes, multi-cycle kinetics (VHH-1, -2, -3, -5: 0.5-32 nM; VHH-4, -6: 64-4096 nM); 25 °C; 20 mM HEPES pH 8.0, 200 mM NaCl, 5 mM DTT, 0.05% Tween20; flow 30 µl/min; association 120 s, dissociation 300 s; 1:1 binding model; conditions: both partners purified
T2 construct: human Gasdermin D (GSDMD), wild type, full length, residues 1-484; also called human GSDMD wt, f.l; hGSDMD; source: E. coli Rosetta (DE3), purified (Ni-NTA, SUMO cleavage by ULP1, second Ni-NTA, SEC S200); chemically biotinylated (ChromaLink Biotin Labeling kit); not shown: His6-SUMO, N-terminal, cleaved

[2] = biological target: T3, chemically biotinylated full length human Gasdermin D (GSDMD) (Homo sapiens (Human)., UniProt P57764, chemically biotinylated (ChromaLink Biotin), approximately 2 biotins per molecule; sites not stated); assay: SPR; chemically biotinylated GSDMD captured on a Series S Sensor Chip CAP (biotin capture kit); nanobodies injected as analytes, multi-cycle kinetics, 120 s association, 300 s dissociation, 1:1 binding model; 25 °C; 20 mM HEPES pH 8.0, 200 mM NaCl, 5 mM DTT, 0.05% Tween20; conditions: both partners purified
T3 construct: human Gasdermin D, wild-type, full length, residues 1-484; also called chemically biotinylated GSDMD; not shown: His6, N-terminal, cleaved; SUMO, N-terminal, cleaved

[3] = biological target: T4, human wild-type, full length Gasdermin D (GSDMD) 1-484 (Homo sapiens (Human)., UniProt P57764); assay: cell-based or functional assay
[4] = biological target: T5, GSDMD_(Δ184-194/Δ247-272) (human, UniProt P57764, Δ184-194 | Δ247-272); assay: SEC-MALS; GSDMD_(Δ184-194/Δ247-272) mixed with VHH GSDMD-2, VHH GSDMD-6 or both at equimolar concentrations (189 µM); Superose 6 10/300 GL in GSDMD-SEC buffer; conditions: both partners purified
T5 construct: human Gasdermin D 1-484 with residues 184-194 (in the NTD) and 247-272 (linker between the domains) deleted; also called GSDMD crystallization construct; source: E. coli Rosetta (DE3), purified (Ni-NTA, ULP1 cleavage, second Ni-NTA, SEC); not shown: His6, N-terminal, cleaved; SUMO, N-terminal, cleaved

[5] = biological target: T1, chemically biotinylated full length …; assay: SPR
[6] = biological target: T4, human wild-type, full length Gasdermin …; assay: nanoDSF thermal shift; nanobodies titrated to GSDMD (5 µM) in increasing concentrations; heated 20 to 90 °C at 1.5 °C/min; fluorescence at 330 and 350 nm; conditions: both partners purified
[7] = biological target: human wild-type, full length Gasdermin D (GSDMD 1-484), chemically biotinylated (human) (UniProt P57764); assay: SPR; Biacore 8K; chemically biotinylated full length GSDMD captured on Series S Sensor Chip CAP; nanobodies injected as analytes, multi-cycle kinetics (VHH-1, -2, -3, -5: 0.5-32 nM; VHH-4, -6: 64-4096 nM); 25 °C; 20 mM HEPES pH 8.0, 200 mM NaCl, 5 mM DTT, 0.05% Tween20; flow 30 µl/min; association 120 s, dissociation 300 s; 1:1 binding model

Binder | Kd [1] [nM] | koff [1] [s⁻¹] | kon [1] [M⁻¹ s⁻¹] | Kd [2] [nM] | also measured
VHH_(GSDMD-3) (VHH, also called VHH-3; source: E. coli WK6, periplasmic expression (pHEN6), purified (Ni-NTA, SEC S75)) VHH: QVQLVETGGGLVQPGGSLRLSCAASGFTLDIYNMGWFRQAPGKEREGVSCISSRYGTSTYYADSVKGRFTISRDNAKNTVYLQMNNLKPEDTAVYYCATVSWRFTTNQDVCLTPSVSGYWGQGTQVTVSS | 0.551 | 0.00154 | 2.8e+06 |  | 
VHH_(GSDMD-3) (VHH, source: E. coli WK6, periplasmic expression (pHEN6), purified (Ni-NTA, gel filtration)) VHH: QVQLVETGGGLVQPGGSLRLSCAASGFTLDIYNMGWFRQAPGKEREGVSCISSRYGTSTYYADSVKGRFTISRDNAKNTVYLQMNNLKPEDTAVYYCATVSWRFTTNQDVCLTPSVSGYWGQGTQVTVSS |  |  |  | 0.55 | 
VHH_(GSDMD-2) (VHH, also called VHH-2; source: E. coli WK6, periplasmic expression (pHEN6), purified (Ni-NTA, SEC S75)) VHH: QVQLVESGGGLVQPGGSLRLSCVDSRSWINVYGANWYRQAPGKERELVAALTSGGTTNYADSVKGRFTISRDNAKNTVYLQMRDLKPEDTAVYYCNLERYTGSSVYPWGQGTQVTVSS | 0.637 | 0.000951 | 1.49e+06 |  | 
VHH_(GSDMD-2) (VHH, CDR1, -2, -3 of 10, 9 and 12 residues; disulfide C22-C95; also called VHH_(GSDMD-2)-LPETG-His; source: E. coli WK6, periplasmic expression (pHEN6), purified (Ni-NTA, gel filtration); not shown: LPETG, C-terminal, kept; His tag, C-terminal, kept) VHH: QVQLVESGGGLVQPGGSLRLSCVDSRSWINVYGANWYRQAPGKERELVAALTSGGTTNYADSVKGRFTISRDNAKNTVYLQMRDLKPEDTAVYYCNLERYTGSSVYPWGQGTQVTVSS |  |  |  | 0.64 | IC50 of calcein release through GSDMD pores in the liposome leakage assay (nanobody 10 nM to 10 µM, 0.5 µM full length GSDMD, caspase-4, 180 min); what is blocked: formation of functional GSDMD pores [3]: 650 nM; stoichiometry N [4]: 1
VHH_(GSDMD-1) (VHH, also called VHH-1; source: E. coli WK6, periplasmic expression (pHEN6), purified (Ni-NTA, SEC S75)) VHH: QVQLVESGGALVQPGGSLRLSCSASGFTFSKYLMSWYRQAPGKERELVATITTAGGNTNYADSVKGRFTISRDNAKNTVYLQMNSLKPEDTAVYYCKASGGTIRTVNETYWGQGTQVTVSS | 0.305 | 0.00198 | 6.48e+06 |  | 
VHH_(GSDMD-1) (VHH, raised by immunization of an alpaca with full-length recombinant human GSDMD; also called VHH_(GSDMD-1)-LPETG-His; source: E. coli WK6, periplasmic expression (pHEN6), purified (Ni-NTA, gel filtration); not shown: LPETG, C-terminal, kept; His tag, C-terminal, kept) VHH: QVQLVESGGALVQPGGSLRLSCSASGFTFSKYLMSWYRQAPGKERELVATITTAGGNTNYADSVKGRFTISRDNAKNTVYLQMNSLKPEDTAVYYCKASGGTIRTVNETYWGQGTQVTVSS |  |  |  | 0.31 | IC50 of calcein release through GSDMD pores in the liposome leakage assay (nanobody 10 nM to 10 µM, 0.5 µM full length GSDMD, caspase-4, 180 min); what is blocked: formation of functional GSDMD pores [3]: 220 nM
VHH_(GSDMD-4) (VHH, source: E. coli WK6, periplasmic expression (pHEN6), purified (Ni-NTA, gel filtration)) VHH: QVQLVESGGGLVQPGGSLRLSCAASGFTLDRHAIAWFRQAPGLEREGVVCTSSSGAITNTADSVKGRFTISRDDAKNTVYLQMNSLKPEDTAIYYCAVRELWTVQPICEPRPRAYAYWGQGTQVTVSS |  |  |  |  | Kd [5]: 559 nM; binding result [6]: binds; koff [7]: 0.00161 s⁻¹; kon [7]: 2890 M⁻¹ s⁻¹
VHH_(GSDMD-5) (VHH, also called VHH-5; source: E. coli WK6, periplasmic expression (pHEN6), purified (Ni-NTA, SEC S75)) VHH: QVQLVETGGGLVQPGGSLRLSCAASGFVFSINPMNWYRQAPGKERELVAYISMRGSTTNYADSVKGRFIISRDNAKNTLYLQMNSLKPEDTAVYYCNAPSRSVWGQGTQVTVSS | 0.494 | 0.00149 | 3.02e+06 |  | 
VHH_(GSDMD-6) (VHH, CDR3 of 15 residues with an additional disulfide C100-C110; also called VHH_(GSDMD-6)-HA-His; source: E. coli WK6, periplasmic expression (pHEN6), purified (Ni-NTA, gel filtration); not shown: HA, C-terminal, kept; His tag, C-terminal, kept) VHH: QVQLVETGGGLVQPGGSLRLSCTASGFIFSANQMNWVRQAPGKGLEWLSGISTRGDTTSYADSVKGRFTISRDNAKNTLYLQMNSLQPDDTAVYFCARVCIRGPEPKLRCDDWGQGTQVTVSS |  |  |  |  | IC50 of calcein release through GSDMD pores in the liposome leakage assay (nanobody 10 nM to 10 µM, 0.5 µM full length GSDMD, caspase-4, 180 min); what is blocked: formation of functional GSDMD pores [3]: 1300 nM; stoichiometry N [4]: 1

Further lines, with some results ahead:

Kd [1] [nM] | koff [1] [s⁻¹] | kon [1] [M⁻¹ s⁻¹] | Kd [2] [nM] | Binder | also measured
 |  |  | 0.49 | VHH_(GSDMD-5) (VHH, source: E. coli WK6, periplasmic expression (pHEN6), purified (Ni-NTA, gel filtration)) VHH: QVQLVETGGGLVQPGGSLRLSCAASGFVFSINPMNWYRQAPGKERELVAYISMRGSTTNYADSVKGRFIISRDNAKNTLYLQMNSLKPEDTAVYYCNAPSRSVWGQGTQVTVSS | 
143 | 0.0201 | 141000 |  | VHH_(GSDMD-6) (VHH, also called VHH-6; source: E. coli WK6, periplasmic expression (pHEN6), purified (Ni-NTA, SEC S75)) VHH: QVQLVETGGGLVQPGGSLRLSCTASGFIFSANQMNWVRQAPGKGLEWLSGISTRGDTTSYADSVKGRFTISRDNAKNTLYLQMNSLQPDDTAVYFCARVCIRGPEPKLRCDDWGQGTQVTVSS | 
